Changes are numbered by the printed parent chain. In names and notes the source's numbering stands.
T1: FcγRIIb (UniProt P31994 46-217, limits assumed)
T1 sequence (looked up): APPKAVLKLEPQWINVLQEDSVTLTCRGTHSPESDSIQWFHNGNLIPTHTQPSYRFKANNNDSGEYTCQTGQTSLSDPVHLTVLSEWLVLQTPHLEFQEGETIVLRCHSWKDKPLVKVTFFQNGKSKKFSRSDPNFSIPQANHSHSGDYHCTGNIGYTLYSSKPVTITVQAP

B1: G1116 (Fc fusion)
chain: EPKSCDKTHTCPPCPAPPLLHGPSVFLFPPKPKDTLMISRTPEVTCVVVDVKFEDPEVKFNWYVDGVEVHNAKTKPREEQYNSTYRVVSVLTVLHQDWLNGKEYKCKVTNKALPAPIEKTISKAKGQPREPQVYTLPPSRDELTKNQVSLTCLVKGFYPSDIAVEWESNGQPENNYKTTPPVLDSDGSFFLYSKLTVDKSRWQQGNVFSCSVMHEALHNHYTQKSLSLSPGKERKCCVECPPCP
notes: G045c background, E233P/G236H/S267K/H268F/S324T; leader 1-20 cleaved
B2: G1123 (Fc fusion)
chain: B1 chain with H21Q, K52R
notes: G045c background, E233P/G236Q/S267R/H268F/S324T; leader 1-20 cleaved
B3: G1070 (Fc fusion)
chain: B1 chain with P18E, H21G, N82A
notes: G045c background, S267K/H268F/S324T/N297A; leader 1-20 cleaved
B4: G1119 (Fc fusion)
chain: B1 chain with H21R
notes: G045c background, E233P/G236R/S267K/H268F/S324T; leader 1-20 cleaved
B5: G1112 (Fc fusion)
chain: B1 chain with H21R, K52R
notes: G045c background, E233P/G236R/S267R/H268F/S324T; leader 1-20 cleaved
B6: G1093 (Fc fusion)
chain: B1 chain with P18E, H21G, T84A
notes: G045c background, S267K/H268F/S324T/T299A; leader 1-20 cleaved
B7: G1084 (Fc fusion)
chain: B1 chain with H21G
notes: G045c background, E233P/S267K/H268F/S324T; leader 1-20 cleaved
B8: G1096 (Fc fusion)
chain: B1 chain with P18E, H21G, K52R, T84A
notes: G045c background, S267R/H268F/S324T/T299A; leader 1-20 cleaved
B9: G1100 (Fc fusion)
chain: B1 chain with H21G, K52R
notes: G045c background, E233P/S267R/H268F/S324T; leader 1-20 cleaved
B10: G1003 (Fc fusion)
chain: ERKCCVECPPCPEPKSCDKTHTCPPCPAPELLGGPSVFLFPPKPKDTLMISRTPEVTCVVVDVEFEDPEVKFNWYVDGVEVHNAKTKPREEQYNSTYRVVSVLTVLHQDWLNGKEYKCKVTNKALPAPIEKTISKAKGQPREPQVYTLPPSREEMTKNQVSLTCLVKGFYPSDIAVEWESNGQPENNYKTTPPVLDSDGSFFLYSKLTVDKSRWQQGNVFSCSVMHEALHNHYTQKSLSLSPGK
notes: G019 background, S267E/H268F/S324T; leader 1-20 cleaved
B11: G1049 (Fc fusion)
chain: B10 chain with L125F, E153D, M155L
notes: G019 background, S267E/H268F/S324T/L328F; leader 1-20 cleaved
B12: G1032 (Fc fusion)
chain: B1 chain with P18E, L19A, L20A, H21G, K52E
notes: G045c background, L234A/L235A/S267E/H268F/S324T; leader 1-20 cleaved
B13: G997 (Fc fusion)
chain: B1 chain with P18E, H21G, K52E
notes: G045c background, S267E/H268F/S324T; leader 1-20 cleaved

The binders below were run against T2, C1q (UniProt P02745 23-245; P02746 28-253; P02747 29-245) (assay: ELISA on coated C1q).
T2 construct: bought C1q coated on ELISA plates at 1 µg/ml; also called complement C1q; complement factor C1q
Description: (§1) For C1q binding, 96 well plates were coated with C1q (Sigma Cat #: C1740 1 μg/ml) overnight in PBS. After coating, plates were washed 3 times with standard wash buffer (iX PBS+0.05% Tween 20) and blocked with blocking buffer (1% BSA+1× PBS+0.05% Tween 20) for 2 hours at RT. Following blocking, plates were incubated with compound diluted in blocking buffer 100 μL/well and washed 3 times with standard washing buffer. C1q-bound compound was detected by incubation with 1:5000 biotinylated mouse anti-human IgG1(Cat #555869, BD Biosciences) and Streptavidin-HRP (Cat #: 7100-05 Southern Biotech) (100 μl/well) for 1 hour at room temperature followed by washing 3 times with washing buffer, after which color was developed using the standard TMB method according to manufacturer's protocol for 15 minutes. Absorbance was read at 450 nm.
(§2) For each stradomer in Tables 5-9, the level of canonical FcγR binding, complement C1q binding, and CDC inhibition were determined according to the methods described in Example 1.

T2 sequence (P02745 23-245 limits assumed, chain 1 of 3): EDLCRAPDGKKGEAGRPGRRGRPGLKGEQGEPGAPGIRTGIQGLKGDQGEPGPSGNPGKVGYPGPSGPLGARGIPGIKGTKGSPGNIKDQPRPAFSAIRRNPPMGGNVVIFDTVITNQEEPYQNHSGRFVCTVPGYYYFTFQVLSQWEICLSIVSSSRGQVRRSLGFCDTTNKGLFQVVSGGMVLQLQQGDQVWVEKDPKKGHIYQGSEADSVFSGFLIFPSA
T2 sequence (P02746 28-253 limits assumed, chain 2 of 3): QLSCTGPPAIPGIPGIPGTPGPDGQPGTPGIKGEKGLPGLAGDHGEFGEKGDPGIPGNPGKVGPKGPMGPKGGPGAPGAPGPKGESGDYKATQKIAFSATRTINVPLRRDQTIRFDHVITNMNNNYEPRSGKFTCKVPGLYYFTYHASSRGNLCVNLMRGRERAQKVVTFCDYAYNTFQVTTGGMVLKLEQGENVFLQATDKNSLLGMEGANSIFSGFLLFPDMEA
T2 sequence (P02747 29-245 limits assumed, chain 3 of 3): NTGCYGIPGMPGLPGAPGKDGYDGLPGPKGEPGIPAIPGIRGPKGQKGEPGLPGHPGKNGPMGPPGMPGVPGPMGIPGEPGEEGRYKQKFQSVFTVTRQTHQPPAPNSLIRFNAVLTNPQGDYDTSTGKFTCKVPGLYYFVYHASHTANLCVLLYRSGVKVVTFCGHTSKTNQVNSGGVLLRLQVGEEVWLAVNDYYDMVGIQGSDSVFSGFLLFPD

Binding result, binds:
B1, B2, B3, B4, B5, B6, B7, B8, B9

Target: T2, C1q
Experiment: ELISA on coated C1q
Remark: another data set of the same source
Description: as §1

Binding result, binds:
B10, B11, B12, B13

These binders were tested against T3, FcγRI (UniProt P12314 16-288) (assay: BLI (Octet)).
T3 construct: also called CD64
Description: (§3) Binding of complement-preferential stradomers or parent stradomer G045c to FcγRI, FcγRIIb, FcγRIIIa, FcγRIIa, or FcRn was assessed. RU values of dissociation were measured by biolayer interferometry using a ForteBio Octet instrument. His-tagged receptor proteins were bound to the sensor tip in 1× kinetic analysis buffer from ForteBio after which the on rate of the receptor/protein was measured by transferring the sensor tip to a 1× kinetics buffer containing the purified stradomer of choice. Off rate was measured by transferring the sensor tip to a 1× kinetics buffer, and RU value was calculated from the measured maximum binding using the ForteBio software. Biolayer interferometry detects the binding between a ligand immobilized on the biosensor tip surface and an analyte in solution. When binding occurs it produces an increase in optical thickness at the biosensor tip, which results in a wavelength shift (detected as a response unit of “RU”). The maximum binding level (RU max) is the maximum possible amount of sample binding at equilibrium that saturates the amount of ligand on the sensor surface. The RU 300 is the residual sample binding after 300 seconds of dissociation and is useful to characterize the rate of dissociation of the test article from the test ligand.

T3 sequence (P12314 16-288 limits assumed): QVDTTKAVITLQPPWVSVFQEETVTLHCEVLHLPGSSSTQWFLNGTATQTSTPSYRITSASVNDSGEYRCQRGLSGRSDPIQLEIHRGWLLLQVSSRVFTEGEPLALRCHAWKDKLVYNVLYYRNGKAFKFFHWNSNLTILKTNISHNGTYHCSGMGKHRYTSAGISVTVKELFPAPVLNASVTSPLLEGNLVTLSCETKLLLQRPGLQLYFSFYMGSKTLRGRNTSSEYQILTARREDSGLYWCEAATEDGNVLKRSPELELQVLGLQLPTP

Binding result, binds:
B10, B11, B12, B13

Each binder was assayed against T1, FcγRIIb (assay: BLI (Octet)).
Description: as §3

Binding result, binds:
B10, B11, B12, B13

Target: T3, FcγRI
Experiment: BLI (Octet)
Remark: another data set of the same source
Description: as §3, §2

Binding result, binds:
B1, B2, B3, B4, B5, B6, B7, B8, B9

— patent publication US20250011433A1 (GLIKNIK, published 2025)
